Key:
Type in all cases: cell-based, human
[1] = system: HDM specific T-cell lines from HDM allergic donors; experiment: T cell reactivity of protein: IL-5/IFNg FluoroSPOT or 72 h T cell proliferation in HDM specific T-cell lines (Example 2); settings: responding donors of tested HDM allergic donors
From the text: PBMCs from European HDM-allergic individuals were recruited in the Copenhagen region (defined by clinical history of allergy to house dust mite and specific IgE to group 1 and group 2 major allergens from Der p and/or Der f and with measured specific IgE (CAP) >0.7 kU/L towards Der p/f 1 or Der p/f 2. In addition, PBMCs from 10 US HDM-allergic individuals were recruited in San Diego (defined by Der p extract IgE titers greater than 0.35 kUA/L). PBMCs were isolated from whole blood by density gradient centrifugation according to manufacturers' instructions (Ficoll-Hypaque, Amersham Biosciences, Uppsala, Sweden). Der p- and Der f-specific extract IgE titers were determined using the ImmunoCAP system (Thermo Fisher, Uppsala, Sweden). In a separate series of experiments, pooled plasma from 10 European and 10 American HDM atopic individuals from the San Diego region, respectively, was utilized to run 2D immunoblots to elucidate IgE and IgG reactivity towards the proteins, which had at least one peptide with positive T cell response.
T cells reactivity was determined by establishment of HDM specific T-cell lines according to standard methods. In short, PMBCs from HDM allergic donors were cultured for 2-3 weeks in the presence of house dust mite allergen extract. The responses to proteins having SEQ ID NOs 1-44 were assessed by IL-5/IFNg FluoroSPOT (Mabtech FS-0108-10) according manufacturer protocol, (after 2 weeks) or proliferation in a standard 72 h T cell proliferation assay, as described in Henmar H et al., Clin Exp Immunol 2008; 153(3):316-23. (after 3 weeks). In addition these established T cell lines were used for further characterization and epitope mapping.

[2] = system: basophils in whole blood from HDM allergic donors; experiment: Basophil Activation Test (BAT); settings: for % responding donors in BAT Assay: responding donors of tested HDM allergic donors, whole blood stimulated 1 h; for # of individuals of 14 with positive BAT test: blood from HDM allergic individuals (n=14)
In short: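 Whole blood from HDM-allergic donors (n=14) was stimulated for 1 h with test proteins across a concentration range, e.g. 1, 10, 100 or 1000 ng/ml. Basophil surface activation markers were measured by flow cytometry, with Der p 1 and Der p 2 tested at the same concentrations as controls.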

[3] = system: T cell lines obtained from HDM allergic individuals and non-allergics; experiment: In vitro T cell proliferation test in T cell lines (Example 3); settings: 0.5 or 2 ug/ml, 72 h
In short: (§1)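 Freshly isolated PBMC (5×10^6/ml) from mite-allergic patients or non-allergics cultured 5 days with test protein up to 10 ug/ml; IFN-gamma, IL-9, IL-10, IL-17, IL-31 in supernatants by multiplex immunoassay. T cell lines, raised 3 weeks on HDM extract, tested at 0.5 or 2 ug/ml protein in 72 h proliferation assay.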

[4] = system: PBMC cells obtained from mite allergic patients and non-allergics; experiment: Ex vivo stimulation of PBMC: cytokine production (IFN-gamma, IL-9, IL-10, IL-17, IL-31)
In short: as §1

B1: 16 (protein, listed as Dermatophagoides pteronyssinus)
chain: MSKPIFYYHPFSGPCRTVSTVAKILNVDMEMKKLDLLTKEHLNPEFLKVNPFHKVPTFVDSDGFVVDESRVIAMYLVESRKPDSFLYPKNDLKKRIQIDRWLHYDINLSTTISAPMFCVFRGHQVQDYQVEQGKETLKTLDGVMQSFEGKFLTGADQFTLADIAMYFSLNTMEVYPKYFKFDDYPNLKSWYHRVAEALKQYDTEGTIPKAIETMKQFIQQRAAEAEKH
[1]
  % T cell responding donors to protein: 3 of 24

B2: 31 (protein, listed as Dermatophagoides pteronyssinus)
chain: MAKFNYLPVDVQEELRNTANAIVSVGKGILAADESTGTIGKRFADINVENVEQNRQAYRQLLFYSEGIEQYISGVILFDETVYQKDDKGVPFPELLKKKGIIPGIKVDTGVVTLQGTNGESTTQGLDNLTKRCQEYYNQGCRFAKWRCVLKIGQDEPSSLAIVENANVLARYASCCQQARIVPIVEPEILPDGDHNLERCQKVTETVLAAVYKALNDHHVYLEGTLLKPNMVTPGQSCPQKASPQEVAQATVTALQRTVPAAVPGIVFLSGGQSEEEASVNLNAINQYQGKKPWALSFSYGRALQASALRAWQGKPENIGAGQKELLQRAKANVLAHKGQYVAGSIPSLASAKSNFVAQHKY
[2]
  % responding donors in BAT Assay: 0 of 8
[1]
  % T cell responding donors to protein: 6 of 27

B3: A007: house dust mite protein; SEQ ID NO: 30 (Der f), 31 (Der p), 306 (Blo t) (protein)
chain: MAKFNYLPVDVQEELRNTANAIVSVGKGILAADESTGTIGKRFADINVENVEQNRQAYRQLLFYSEGIEQYISGVILFDETVYQKDDKGVPFPELLKKKGIIPGIKVDTGVVTLQGTNGESTTQGLDNLTKRCQEYYNQGCRFAKWRCVLKIGQDEPSSLAIVENANVLARYASCCQQARIVPIVEPEILPDGDHNLERCQKVTETVLAAVYKALNDHHVYLEGTLLKPNMVTPGQSCPQKASPQEVAQATVTALQRTVPAAVPGIVFLSGGQSEEEASVNLNAINQYQGKKPWALSFSYGRALQASALRAWQGKPENIGAGQKELLQRAKANVLAHKGQYVAGSIPSLASAKSNFVAQHKY
[2]; 1 ng/ml
  # of individuals of 14 with positive BAT test: 0
[2]; 10 ng/ml
  # of individuals of 14 with positive BAT test: 0
[2]; 100 ng/ml
  # of individuals of 14 with positive BAT test: 0
[2]; 1000 ng/ml
  # of individuals of 14 with positive BAT test: 0
[3]; T cell lines from HDM allergic individuals (n=30)
  % responders of in-vitro T cell proliferation test, Allergic: 21%
[3]; T cell lines from non-allergics (n=8)
  % responders of in-vitro T cell proliferation test, Non-allergics: 38%
[4]; HDM allergic individuals, IL-5
  % HDM allergic individuals with cytokine production in ex-vivo T cell assay IL-5: 6%
[4]; HDM allergic individuals, IL-9
  % HDM allergic individuals with cytokine production in ex-vivo T cell assay IL-9: 6%
[4]; HDM allergic individuals, IL-10
  % HDM allergic individuals with cytokine production in ex-vivo T cell assay IL-10: 44%
[4]; HDM allergic individuals, IL-13
  % HDM allergic individuals with cytokine production in ex-vivo T cell assay IL-13: 19%
[4]; HDM allergic individuals, IL-17
  % HDM allergic individuals with cytokine production in ex-vivo T cell assay IL-17: 38%
[4]; HDM allergic individuals, IL-31
  % HDM allergic individuals with cytokine production in ex-vivo T cell assay IL-31: 0%
[4]; HDM allergic individuals, INF-g
  % HDM allergic individuals with cytokine production in ex-vivo T cell assay INF-g: 31%
[4]; non-allergic individuals, IL-5
  % non-allergic individuals with cytokine production in ex-vivo T cell assay IL-5: 0%
[4]; non-allergic individuals, IL-9
  % non-allergic individuals with cytokine production in ex-vivo T cell assay IL-9: 0%
[4]; non-allergic individuals, IL-10
  % non-allergic individuals with cytokine production in ex-vivo T cell assay IL-10: 83%
[4]; non-allergic individuals, IL-13
  % non-allergic individuals with cytokine production in ex-vivo T cell assay IL-13: 0%
[4]; non-allergic individuals, IL-17
  % non-allergic individuals with cytokine production in ex-vivo T cell assay IL-17: 67%
[4]; non-allergic individuals, IL-31
  % non-allergic individuals with cytokine production in ex-vivo T cell assay IL-31: 0%
[4]; non-allergic individuals, INF-g
  % non-allergic individuals with cytokine production in ex-vivo T cell assay INF-g: 33%

B4: 3 (protein, listed as Dermatophagoides pteronyssinus)
chain: MAIDGKYQMESSEHFEEFVKEMGLDVDMTNVDLSKTSTMEICKDGDVYHIKSETAGIAHEIKFKVGEEFEDDMNGHKFKNVVTMECDNKMVQKKTSADGGKVVNVVREFTDAGCTVKSTYNTVTWTRVYKRM
[2]
  % responding donors in BAT Assay: 0 of 16
[1]
  % T cell responding donors to protein: 1 of 29

B5: 18 (protein, listed as Dermatophagoides pteronyssinus)
chain: QSLFVDYNDYSCGSSQNETNELIQEFKIFKKNINGNENFKKINDFIEKARLFRDNAAKQMLEIDQQLLTLNVIQISQRIKLENNKIQCEKLTKFSELLSMQLLAYEVGMFEFAEEIDPNIDFDRKMKNFLDETSRLFNLAEFEKLEKKFRNATSIEKLKNYIDGELVALNDYINEFLKDIIMSEFTVQSRYYLNFSIEDQVQIDSTLMTFSALKILLNDLKDYLEHLDN
[1]
  % T cell responding donors to protein: 0 of 24

B6: 20 (protein, listed as Dermatophagoides pteronyssinus)
chain: NWQMVWQDEFNGGHLDQNHWEFETGGGGWGNNELEFYTANRSQNVRVENGHLVIDVRVESYGGRDFTSGRIHSKQAWAYGKFEARARLPSGHHLWPAIWMFPRDSKYGPWAASGEIDIMEYRGDVHDKIEGTIHYGGQWPNNIYTGSGPHHFNVDFSKDFHNFAVEWDTKEIRWYMDGNKYFSVNIDRNMWSGKGNNPYNKNGQPFDQPFRWILNVAVGGNFFGPGPYVTPDQARHWQKHTMEIDYVRVYQWR
[1]
  % T cell responding donors to protein: 6 of 24

B7: 4 (protein, listed as Dermatophagoides pteronyssinus)
chain: QVYCNGAAIVSAARSQIGVPYSWGGGGIHGKSRGIGEGANTVGFDCSGLAQYSVYQGTHKVLARVASGQYSDPKCHHVAYGSHQPGDLVFFGNPIHHVGIVSAHGRMINAPHTGTNVREENIWSDHIANVARCW
[1]
  % T cell responding donors to protein: 8 of 24

B8: 24 (protein, listed as Dermatophagoides pteronyssinus)
chain: DPVQQRPTLRGVTVRVGPFVKENNGKFEGFIPDLVQAISEKVGFDYTLYLSPDGRYGNVISDGNVTGMIGEVYNKKADFAAADLTMTEARENYITFTEPFMINQLAALIRREDAEGLNTLEDLAKAQETFPKRKRIVLGTLRNGATNYFLSKSDDPLAKKIYEQIKADDQSVVKSISEGVERVDKQGGYAFIMESASAEHEIANNCKLTMLLDWRNLFPRKYAFALPKDSPYLEHFNNAIKQLNSEGKIAELRRKYWANNCAENKTKDDKN
[1]
  % T cell responding donors to protein: 3 of 24

B9: 44 (protein, listed as Dermatophagoides pteronyssinus)
chain: VVIKVENLPEQCDYTQCPKWSKDDINVHLVAHTHDDVGWLKTVEQYYYGLKNDIQRAGVQYILDTMIEELIRNKDRRFIYVEIAFFWKWWQEQNEEQRMIVKELVRTGQLEFINGGWSMPDEAATHYNSLIDQSTWGLRQLNDTFGRCGHPKVTWQIDPFGHSKEMANLYAQMGYDALFFARQDYQDRENRMSNRTLEHVWQGSDDLGEIGDIFTGMMFSGYGPIEFNWDITNGPEDAVVDNPESEEYNVPDKIRRFVEKAKYFGQFYATNHFMFPMGTDFQYTDAHTWFKNLDKLINAVNKAGKGVRAFYSTPSCYAHALYEQNRTWTTKTDDFFPYASDEHAYWTGYFTSRPAIKRMERIGNNLLQACKQLDVLADNNGRFEMNLTKMREAMGVMQHHDAVTGTEKQHVAFNYAKMLDSAMLQCRHIINESYKKLLPKSSTSEHEFCPYLNISSCPTTEMGESRIIYLYNPLGHRLINHTVRLPIKNGYYYRIQDQNNQSVPSVLVPIPEFVQKIPGRKSVATKELVFRVPVIEPLGITTMYMYVDKNEQPNSAIEIKGENPDDNDDKSKWLVLTKNLIVEFYSNGTISRISIDKLHQSISISNEFRLYHGAGGTGRHSGAYIFRPNEQKTFPVTNKIKSTFFIDRKYHIVQEVHQQFDSSFVGQIIRMDKYNDNVEFDFVVGPIPVNDQIGKEIIASYKTDLENDETFYTDANGRQMLRRRWNYRPSWKYNVQEPISGNYYPVNSRIAIRDEKQSLQMTIMTDRSQGGSLSPEQINGSIDIMIHRRLLHDDYFGVGEALNEPGVDGHGLVIRGKHLLLLNSIKQSASEHRPLAQQMFMEPIISFTSIESNKQAEKQSNQYIGLNNDLPSNVHLLTLEQWHSKRYLLRLEHFYQSNEDTELSKPVKLSLRHLFKSFEIIAVEELTLGANQPISSLKNRLHYRYNRPLEQRQQQQSSLLLDDPKIEGENFDIHLSPMQIRTFLIDIKRN
[1]
  % T cell responding donors to protein: 7 of 24

B10: 12 (protein, listed as Dermatophagoides pteronyssinus)
chain: MSISAHGGGLVNGIAGMENKFTVFTSGKPVSGLTVAFEGPTKPEINFNSTKDGSVDVGYIPKAGGQYKIHIKYEGKEIVGSPFKCNISGDESTHRKLTEKVKVGGPNISTGKVNQDNQLTIDCKEAGITGGISFAMEGPAKVEVSFRNNNDGTITVIYKPPTPGDYKLHLKFNDIHLPGSPYPIVVSA
[1]
  % T cell responding donors to protein: 5 of 24
